Consider two molecules from patent publication US8022188B2, “Immunosuppressant binding antibodies and methods of obtaining and using same” (Abbott Laboratories, priority 2006, dated 2011).

For assay [1] the following is noted: cited from earlier work.
Assay [2] in a line: Kinetic Exclusion Assay (KinExA) affinity determination of IgG. The note with it: for Fold Improvement: KD, relative to 1-60-46 WT IgG. Type of assay: binding. How it is done: The equilibrium dissociation constants for both the 1-60-46 AM2 IgG and the 1-60-46 WT mAb IgG produced from the murine hybridoma cell line 1-60-46 were determined using Kinetic Exclusion Assay (KinExA®), available from Sapidyne Instruments (Boise, Id.) (See, Darling and Brault, ASSAY and Drug Development Technologies, 2(6):647-657 (2004)). A constant amount of IgG antibody (AM2 or WT) was incubated with various concentrations (10^−8 M to 10^−13 M) of tacrolimus drug (commercially available from Astellas Pharma, Inc., Tokyo, Japan) and allowed to come to equilibrium (2 hours to 14 hours) before sampling. The amount of free binding sites was determined by injecting the antibody:tacrolimus reaction mixture over bt-tacro immobilized to a solid-phase. Tacrolimus IgG antibody bound to the bt-tacro immobilized to the solid-phase was subsequently detected by injecting goat anti-mouse polyclonal antibody conjugates (GAM) to Cy5 (GAM-Cy5) fluorescent dye. The degree of GAM-Cy5 bound was proportional to the amount of tacrolimus IgG bound to the immobilized bt-tacro and was detected after excitation with the appropriate wavelength. The KD was determined by analyzing the amount of free binding sites versus the amount of antigen present in the reaction sample using software provided by the manufacturer (Sapidyne Instruments; Boise, Id.).
In general terms: Kinetic exclusion samples the free partner from a solution-phase mixture.

Read-outs that look alike come from different tables or passages of the source.

As usually defined, the Kd is the constant that tells how readily two partners part at equilibrium.

Take `C=CC[C@@H]1/C=C(\C)C[C@H](C)C[C@H](OC)[C@H]2O[C@@](O)(C(=O)C(=O)N3CCCC[C@H]3C(=O)O[C@H](/C(C)=C/[C@@H]3CC[C@@H](O)[C@H](OC)C3)[C@H](C)[C@@H](O)CC1=O)[C@H](C)C[C@@H]2OC` [Tacrolimus]: the “in vivo potency greater than cyclosporine CsA” value in assay [1] is 50-100 times.

B1: 1-60-46 AM2 IgG: murine IgG2a/κ containing the H2-1A, L1-1B and L3-A mutations; SEQ ID NO:40 and 42 (antibody)
heavy: EVELVESGGDLVKPGGSLKLSCAASGFTFSSYGMSWVRQTPDKRLEWVATISSGGAWTFYPDSVKGRFTISRDNAKNTLSLQMSSLKSADTAMYYCSRQTDGYSWFPYWGQGTLVTVSASAKTTAPSVYPLAPVCGDTTGSSVTLGCLVKGYFPEPVTLTWNSGSLSSGVHTFPAVLQSDLYTLSSSVTVTSSTWPSQSITCNVAHPASSTKVDKKIEPRGPTIKPCPPCKCPAPNLLGGPSVFIFPPKIKDVLMISLSPIVTCVVVDVSEDDPDVQISWFVNNVEVHTAQTQTHREDYNSTLRVVSALPIQHQDWMSGKEFKCKVNNKDLPAPIERTISKPKGSVRAPQVYVLPPPEEEMTKKQVTLTCMVTDFMPEDIYVEWTNNGKTELNYKNTEPVLDSDGSYFMYSKLRVEKKNWVERNSYSCSVVHEGLHNHHTTKSFSRTPGK
light: DVLMTQTPLSLPVSLGDQASISCKSSQGLVHSTGNTFLEWFLQKPGQSPKLLIYKISNRFSGVPDRFSGSGSGTDFTLKISRVESEDLGVYYCFQGSHAPLTFGAGTKLELKRASADAAPTVSIFPPSSEQLTSGGASVVCFLNNFYPKDINVKWKIDGSERQNGVLNSWTDQDSKDSTYSMSSTLTLTKDEYERHNSYTCEATHKTSTSPIVKSFNRNEC
modifications: Mouse
On to B1, for which the entries for the “Fold Improvement” value in assay [2] (10% MeOH) and in assay [2] (no MeOH) were 12x and 16x, respectively. In addition, the “improvement in KD relative to the 1-60-46 WT IgG” value turned out to be 16 fold in assay [2] (physiological diluent) and 12 fold in assay [2] (selection diluent). For the same molecule, the dissociation constant (Kd) in assay [2] (physiological diluent (PBS pH 7.4, 1% BSA), read-out: KD (no MeOH)) worked out at 1.2 pM; in assay [2] (selection diluent (PBS, 1% BSA, 10% methanol), read-out: Kd (10% MeOH)) it was 13 pM.
